We go through one protein from FireProtDB (doi:10.1021/bi00197a024).

The conditions of this data set: Saccharomyces cerevisiae (strain ATCC 204508 / S288c), Thermal, DSC, reversible: yes, whole UniProt chain shown.

“And” between values parts separate entries of the source, which are not always exact repeats. Equal entries are not always repeated.

B1: Cytochrome c mitochondrial import factor CYC2 wild type, P38909 (protein)
chain: MLWKNYVLSSSRITRRLHKSPRKSSFSKNFFITGCLLTVGAVSSYLTYRYTSERENKHELSPSYFVKYKISHKRDIDSSHFLLEVTPLFKQKVNIWSLMTAENLWSVEIKQPEVMVVRNYTPLPLKFNPASKEIEILKDGDNADGKLSFYIKKYENGEVARWLHHLPKGHIIEIRGPFIDYEFPHLPNELKRSRDCLYMDNRNERGNNVRENSQFIYQPYDIMMFTAGTGIVTALQLLLTESPFRGTIKLFHTDKNIKQLGPLYPILLRLQASNRVQLKIFETDRQTKQDVLKSIQKSITKPYPYKGLLPFSNVNNKNIMPVLALVCGPESYISSISGRKYDLNQGPVGGLLSKEGWNSDNVYKLS
A word on the Tm: it is the temperature at the midpoint of the melting transition. Turning to B1, the Tm was 39 °C (pH 3.5, Sodium acetate 0.1 M); 43.7 °C (pH 4, Sodium acetate 0.1 M); 54.9 °C and 53.1 °C (pH 5, Sodium phosphate 0.1 M); 54.5 °C (pH 6, Sodium phosphate 0.1 M). Besides, the “unfolding enthalpy (calorimetric)” value (pH 3.5, Sodium acetate 0.1 M) was 53.7 kcal/mol; the “unfolding enthalpy (calorimetric)” value (pH 4, Sodium acetate 0.1 M) came to 62.7 kcal/mol; the “unfolding enthalpy (calorimetric)” value (pH 5, Sodium phosphate 0.1 M) was 73.4 kcal/mol and 71.2 kcal/mol; the “unfolding enthalpy (calorimetric)” value (pH 6, Sodium phosphate 0.1 M) worked out at 67.4 kcal/mol. The “unfolding enthalpy (van 't Hoff)” value was 67.7 kcal/mol (pH 3.5, Sodium acetate 0.1 M); 75.9 kcal/mol (pH 4, Sodium acetate 0.1 M); 93.2 kcal/mol and 92.9 kcal/mol (pH 5, Sodium phosphate 0.1 M); 91.7 kcal/mol (pH 6, Sodium phosphate 0.1 M).
